In the test the target is human corticotropin-releasing factor 2α (CRF2α receptor) (human), Q13324. Nature of the test: cell-based or functional assay.

We go through six molecules from patent US12679878B2, “CRF2 receptor agonists and their use in therapy” (SANOFI, priority 2020, dated 2026).

Starred links: 1 amine or outer side, 2 acyl side, 3 side chain; linkers in the order of their positions; H or OH if unused. Non-standard residues stand in square brackets, D forms with d. Groups on a side chain read outwards from the residue. No end group written: not given here. *: point of attachment. γGlu = O=C(O)[C@H](CCC(=O)[*:2])N[*:1]; Palmitoyl = CCCCCCCCCCCCCCCC(=O)*; AEEA = NCCOCCOCC(=O)O; Aib = CC(C)(N)C(=O)O

B1: peptide of SEQ ID NO: 205 (peptide)
peptide: IVLSLD[dV]PIKLK([AEEA-AEEA-γGlu-Palmitoyl])QILLKQERQK[Aib]QREQAEKNKQILAQV-NH2
modifications: N-terminus assumed
SMILES: CCCCCCCCCCCCCCCC(=O)N[C@@H](CCC(=O)NCCOCCOCC(=O)NCCOCCOCC(=O)NCCCC[C@H](NC(=O)[C@H](CC(C)C)NC(=O)[C@H](CCCCN)NC(=O)[C@@H](NC(=O)[C@@H]1CCCN1C(=O)[C@H](NC(=O)[C@H](CC(=O)O)NC(=O)[C@H](CC(C)C)NC(=O)[C@H](CO)NC(=O)[C@H](CC(C)C)NC(=O)[C@@H](NC(=O)[C@@H](N)[C@@H](C)CC)C(C)C)C(C)C)[C@@H](C)CC)C(=O)N[C@@H](CCC(N)=O)C(=O)N[C@H](C(=O)N[C@@H](CC(C)C)C(=O)N[C@@H](CC(C)C)C(=O)N[C@@H](CCCCN)C(=O)N[C@@H](CCC(N)=O)C(=O)N[C@@H](CCC(=O)O)C(=O)N[C@@H](CCCNC(=N)N)C(=O)N[C@@H](CCC(N)=O)C(=O)N[C@@H](CCCCN)C(=O)NC(C)(C)C(=O)N[C@@H](CCC(N)=O)C(=O)N[C@@H](CCCNC(=N)N)C(=O)N[C@@H](CCC(=O)O)C(=O)N[C@@H](CCC(N)=O)C(=O)N[C@@H](C)C(=O)N[C@@H](CCC(=O)O)C(=O)N[C@@H](CCCCN)C(=O)N[C@@H](CC(N)=O)C(=O)N[C@@H](CCCCN)C(=O)N[C@@H](CCC(N)=O)C(=O)N[C@H](C(=O)N[C@@H](CC(C)C)C(=O)N[C@@H](C)C(=O)N[C@@H](CCC(N)=O)C(=O)N[C@H](C(N)=O)C(C)C)[C@@H](C)CC)[C@@H](C)CC)C(=O)O
B1 had an EC50 [nM], 0% HSA (cAMP, HTRF) of 0.32 nM.

B2: peptide of SEQ ID NO: 215 (peptide)
peptide: IVLSLD[dV]PIGLK([γGlu-Palmitoyl])QILLKQERQKK[Aib]REQAETNKQILAQV-NH2
modifications: N-terminus assumed
SMILES: CCCCCCCCCCCCCCCC(=O)N[C@@H](CCC(=O)NCCCC[C@H](NC(=O)[C@H](CC(C)C)NC(=O)CNC(=O)[C@@H](NC(=O)[C@@H]1CCCN1C(=O)[C@H](NC(=O)[C@H](CC(=O)O)NC(=O)[C@H](CC(C)C)NC(=O)[C@H](CO)NC(=O)[C@H](CC(C)C)NC(=O)[C@@H](NC(=O)[C@@H](N)[C@@H](C)CC)C(C)C)C(C)C)[C@@H](C)CC)C(=O)N[C@@H](CCC(N)=O)C(=O)N[C@H](C(=O)N[C@@H](CC(C)C)C(=O)N[C@@H](CC(C)C)C(=O)N[C@@H](CCCCN)C(=O)N[C@@H](CCC(N)=O)C(=O)N[C@@H](CCC(=O)O)C(=O)N[C@@H](CCCNC(=N)N)C(=O)N[C@@H](CCC(N)=O)C(=O)N[C@@H](CCCCN)C(=O)N[C@@H](CCCCN)C(=O)NC(C)(C)C(=O)N[C@@H](CCCNC(=N)N)C(=O)N[C@@H](CCC(=O)O)C(=O)N[C@@H](CCC(N)=O)C(=O)N[C@@H](C)C(=O)N[C@@H](CCC(=O)O)C(=O)N[C@H](C(=O)N[C@@H](CC(N)=O)C(=O)N[C@@H](CCCCN)C(=O)N[C@@H](CCC(N)=O)C(=O)N[C@H](C(=O)N[C@@H](CC(C)C)C(=O)N[C@@H](C)C(=O)N[C@@H](CCC(N)=O)C(=O)N[C@H](C(N)=O)C(C)C)[C@@H](C)CC)[C@@H](C)O)[C@@H](C)CC)C(=O)O
For the molecule B2, the EC50 [nM], 0% HSA (cAMP, HTRF) was found to be 0.15 nM.

B3: peptide of SEQ ID NO: 213 (peptide)
peptide: IVLSLD[dV]PIKLK([γGlu-Palmitoyl])QILLKQERQKKQREKAEKNKQILAQV-NH2
modifications: N-terminus assumed
SMILES: CCCCCCCCCCCCCCCC(=O)N[C@@H](CCC(=O)NCCCC[C@H](NC(=O)[C@H](CC(C)C)NC(=O)[C@H](CCCCN)NC(=O)[C@@H](NC(=O)[C@@H]1CCCN1C(=O)[C@H](NC(=O)[C@H](CC(=O)O)NC(=O)[C@H](CC(C)C)NC(=O)[C@H](CO)NC(=O)[C@H](CC(C)C)NC(=O)[C@@H](NC(=O)[C@@H](N)[C@@H](C)CC)C(C)C)C(C)C)[C@@H](C)CC)C(=O)N[C@@H](CCC(N)=O)C(=O)N[C@H](C(=O)N[C@@H](CC(C)C)C(=O)N[C@@H](CC(C)C)C(=O)N[C@@H](CCCCN)C(=O)N[C@@H](CCC(N)=O)C(=O)N[C@@H](CCC(=O)O)C(=O)N[C@@H](CCCNC(=N)N)C(=O)N[C@@H](CCC(N)=O)C(=O)N[C@@H](CCCCN)C(=O)N[C@@H](CCCCN)C(=O)N[C@@H](CCC(N)=O)C(=O)N[C@@H](CCCNC(=N)N)C(=O)N[C@@H](CCC(=O)O)C(=O)N[C@@H](CCCCN)C(=O)N[C@@H](C)C(=O)N[C@@H](CCC(=O)O)C(=O)N[C@@H](CCCCN)C(=O)N[C@@H](CC(N)=O)C(=O)N[C@@H](CCCCN)C(=O)N[C@@H](CCC(N)=O)C(=O)N[C@H](C(=O)N[C@@H](CC(C)C)C(=O)N[C@@H](C)C(=O)N[C@@H](CCC(N)=O)C(=O)N[C@H](C(N)=O)C(C)C)[C@@H](C)CC)[C@@H](C)CC)C(=O)O
B3 registered an EC50 [nM], 0% HSA (cAMP, HTRF) of 4.48 nM.

B4: peptide of SEQ ID NO: 211 (peptide)
peptide: IVLSLD[dV]PIKLK([AEEA-AEEA-γGlu-γGlu-Palmitoyl])QILLKQERQKK[Aib]RQKAEKNKQILAQV-NH2
modifications: N-terminus assumed
SMILES: CCCCCCCCCCCCCCCC(=O)N[C@@H](CCC(=O)N[C@@H](CCC(=O)NCCOCCOCC(=O)NCCOCCOCC(=O)NCCCC[C@H](NC(=O)[C@H](CC(C)C)NC(=O)[C@H](CCCCN)NC(=O)[C@@H](NC(=O)[C@@H]1CCCN1C(=O)[C@H](NC(=O)[C@H](CC(=O)O)NC(=O)[C@H](CC(C)C)NC(=O)[C@H](CO)NC(=O)[C@H](CC(C)C)NC(=O)[C@@H](NC(=O)[C@@H](N)[C@@H](C)CC)C(C)C)C(C)C)[C@@H](C)CC)C(=O)N[C@@H](CCC(N)=O)C(=O)N[C@H](C(=O)N[C@@H](CC(C)C)C(=O)N[C@@H](CC(C)C)C(=O)N[C@@H](CCCCN)C(=O)N[C@@H](CCC(N)=O)C(=O)N[C@@H](CCC(=O)O)C(=O)N[C@@H](CCCNC(=N)N)C(=O)N[C@@H](CCC(N)=O)C(=O)N[C@@H](CCCCN)C(=O)N[C@@H](CCCCN)C(=O)NC(C)(C)C(=O)N[C@@H](CCCNC(=N)N)C(=O)N[C@@H](CCC(N)=O)C(=O)N[C@@H](CCCCN)C(=O)N[C@@H](C)C(=O)N[C@@H](CCC(=O)O)C(=O)N[C@@H](CCCCN)C(=O)N[C@@H](CC(N)=O)C(=O)N[C@@H](CCCCN)C(=O)N[C@@H](CCC(N)=O)C(=O)N[C@H](C(=O)N[C@@H](CC(C)C)C(=O)N[C@@H](C)C(=O)N[C@@H](CCC(N)=O)C(=O)N[C@H](C(N)=O)C(C)C)[C@@H](C)CC)[C@@H](C)CC)C(=O)O)C(=O)O
B4 gave an EC50 [nM], 0% HSA (cAMP, HTRF) of 0.94 nM.

B5: peptide of SEQ ID NO: 210 (peptide)
peptide: IVLSLD[dV]PIKLK([AEEA-AEEA-γGlu-Palmitoyl])QILLKQERQKK[Aib]RQKAEKNKQILAQV-NH2
modifications: N-terminus assumed
SMILES: CCCCCCCCCCCCCCCC(=O)N[C@@H](CCC(=O)NCCOCCOCC(=O)NCCOCCOCC(=O)NCCCC[C@H](NC(=O)[C@H](CC(C)C)NC(=O)[C@H](CCCCN)NC(=O)[C@@H](NC(=O)[C@@H]1CCCN1C(=O)[C@H](NC(=O)[C@H](CC(=O)O)NC(=O)[C@H](CC(C)C)NC(=O)[C@H](CO)NC(=O)[C@H](CC(C)C)NC(=O)[C@@H](NC(=O)[C@@H](N)[C@@H](C)CC)C(C)C)C(C)C)[C@@H](C)CC)C(=O)N[C@@H](CCC(N)=O)C(=O)N[C@H](C(=O)N[C@@H](CC(C)C)C(=O)N[C@@H](CC(C)C)C(=O)N[C@@H](CCCCN)C(=O)N[C@@H](CCC(N)=O)C(=O)N[C@@H](CCC(=O)O)C(=O)N[C@@H](CCCNC(=N)N)C(=O)N[C@@H](CCC(N)=O)C(=O)N[C@@H](CCCCN)C(=O)N[C@@H](CCCCN)C(=O)NC(C)(C)C(=O)N[C@@H](CCCNC(=N)N)C(=O)N[C@@H](CCC(N)=O)C(=O)N[C@@H](CCCCN)C(=O)N[C@@H](C)C(=O)N[C@@H](CCC(=O)O)C(=O)N[C@@H](CCCCN)C(=O)N[C@@H](CC(N)=O)C(=O)N[C@@H](CCCCN)C(=O)N[C@@H](CCC(N)=O)C(=O)N[C@H](C(=O)N[C@@H](CC(C)C)C(=O)N[C@@H](C)C(=O)N[C@@H](CCC(N)=O)C(=O)N[C@H](C(N)=O)C(C)C)[C@@H](C)CC)[C@@H](C)CC)C(=O)O
B5 returned an EC50 [nM], 0% HSA (cAMP, HTRF) of 2.98 nM.

B6: peptide of SEQ ID NO: 206 (peptide)
peptide: IVLSLD[dV]PIKLK([AEEA-AEEA-γGlu-γGlu-Palmitoyl])QILLKQERQK[Aib]QREQAEKNKQILAQV-NH2
modifications: N-terminus assumed
SMILES: CCCCCCCCCCCCCCCC(=O)N[C@@H](CCC(=O)N[C@@H](CCC(=O)NCCOCCOCC(=O)NCCOCCOCC(=O)NCCCC[C@H](NC(=O)[C@H](CC(C)C)NC(=O)[C@H](CCCCN)NC(=O)[C@@H](NC(=O)[C@@H]1CCCN1C(=O)[C@H](NC(=O)[C@H](CC(=O)O)NC(=O)[C@H](CC(C)C)NC(=O)[C@H](CO)NC(=O)[C@H](CC(C)C)NC(=O)[C@@H](NC(=O)[C@@H](N)[C@@H](C)CC)C(C)C)C(C)C)[C@@H](C)CC)C(=O)N[C@@H](CCC(N)=O)C(=O)N[C@H](C(=O)N[C@@H](CC(C)C)C(=O)N[C@@H](CC(C)C)C(=O)N[C@@H](CCCCN)C(=O)N[C@@H](CCC(N)=O)C(=O)N[C@@H](CCC(=O)O)C(=O)N[C@@H](CCCNC(=N)N)C(=O)N[C@@H](CCC(N)=O)C(=O)N[C@@H](CCCCN)C(=O)NC(C)(C)C(=O)N[C@@H](CCC(N)=O)C(=O)N[C@@H](CCCNC(=N)N)C(=O)N[C@@H](CCC(=O)O)C(=O)N[C@@H](CCC(N)=O)C(=O)N[C@@H](C)C(=O)N[C@@H](CCC(=O)O)C(=O)N[C@@H](CCCCN)C(=O)N[C@@H](CC(N)=O)C(=O)N[C@@H](CCCCN)C(=O)N[C@@H](CCC(N)=O)C(=O)N[C@H](C(=O)N[C@@H](CC(C)C)C(=O)N[C@@H](C)C(=O)N[C@@H](CCC(N)=O)C(=O)N[C@H](C(N)=O)C(C)C)[C@@H](C)CC)[C@@H](C)CC)C(=O)O)C(=O)O
B6 displayed an EC50 [nM], 0% HSA (cAMP, HTRF) of 0.09 nM.
